Experimental data published in patent US20110053840A1 (MERCK SERONO S A, published 2011).

B1: HuPb28 (peptide)
peptide: Ac-MLIYYSSYL-NH2
notes: acetylated nonapeptide amide; also called HuPb28 peptide

Molecular target: T1, HLA-DR2b molecules purified from L cells co-transfected with HLA-DRA and HLA-DRB1*1501 (human)
T1 construct: also called purified DR2b molecules
Test: competitive ELISA (DELFIA) on purified HLA-DR2b, displacement of biotinylated CLIP 97-120
Text: DR2b molecules were purified from L cells that had been co-transfected with HLA-DRA and HLA-DRB1*1501, by affinity chromatography using the HLA-DR-specific L243 antibody, as described in Weissert et al. (2001), MHC class II-regulated central nervous system autoaggression and T cell responses in peripheral lymphoid tissues are dissociated in myelin oligodendrocyte glycoprotein-induced experimental autoimmune encephalomyelitits, J. Immunol. […] The above publication is incorporated into the present application by reference. The binding assays were performed with a competitive ELISA based on a dissociation-enhanced lanthanide fluoroimmunoassay (Wallac, Turku, Finland). For the competitive ELISA, a 50 nM solution of DR2b molecules was incubated for 48 hours at 37° C. with 50 nM biotinylated CLIP 97-120 in the presence of 250 nM acetylated nonapeptide amide sublibrary or with various concentrations of competitor peptides ranging from 1 nM to 100 μM.
The affinity of each of these peptides for the HLA-DR2b molecule was measured using the ELISA.

Binder | IC50 [nM]
Ac-KGESGFRDR-NH2 (acetylated nonapeptide amide) [HuPb17] | > 100000
Ac-WGLPEHLER-NH2 (acetylated nonapeptide amide) [HuPb11] | > 100000
Ac-MIYWYSSWL-NH2 (acetylated nonapeptide amide) [HuPb20] | 1
Ac-MIYWYSSWI-NH2 (acetylated nonapeptide amide) [HuPb21] | 1
Ac-MIYWYSNWL-NH2 (acetylated nonapeptide amide) [HuPb30] | < 1
Ac-LIYWYSSWL-NH2 (acetylated nonapeptide amide) [HuPb22] | 2
Ac-LILWYSSWP-NH2 (acetylated nonapeptide amide) [HuPb26] | 1
Ac-LILWYSSWL-NH2 (acetylated nonapeptide amide) [HuPb24] | 2
Ac-MIYWYSSWD-NH2 (acetylated nonapeptide amide) [HuPb33] | 1
Ac-MIYWYNSWL-NH2 (acetylated nonapeptide amide) [HuPb31] | < 1
Ac-GPLPEHELL-NH2 (acetylated nonapeptide amide) [HuPb15] | 46700
Ac-LILYYYYYL-NH2 (acetylated nonapeptide amide) [HuPb23] | 154
Ac-DIYWYSSWP-NH2 (acetylated nonapeptide amide) [HuPb32] | < 1
B1 | < 1
Ac-LLYWYSSWP-NH2 (acetylated nonapeptide amide) [HuPb27] | < 1
Ac-GSLPRHLFR-NH2 (acetylated nonapeptide amide) [HuPb18] | 43800
Ac-MIDWYSSWP-NH2 (acetylated nonapeptide amide) [HuPb34] | 1
Ac-WPLPLLEER-NH2 (acetylated nonapeptide amide) [HuPb10] | 33900
Ac-FILIYSNLF-NH2 (acetylated nonapeptide amide) [HuPb29] | 2
Ac-PYEAQELHE-NH2 (acetylated nonapeptide amide) [HuPb14] | > 100000
Ac-GPPERLEFR-NH2 (acetylated nonapeptide amide) [HuPb19] | > 100000
